Laboratory results: patent US20260015423A1 (STAIDSON BIOPHARMA, published 2026)
Read-outs that look alike come from different tables or passages of the source.

Assays:
[1] = biological target: T1, cynomolgus PD-L1 (Sino biological, 90251-C08H) (cynomolgus, UniProt G7PSE7 19-238); assay: BLI (Octet Red), antibody captured on anti-human Fc sensors, cynomolgus PD-L1 as analyte
T1 construct: Bought recombinant protein used as analyte in BLI; not shown: C-terminal polyhistidine tag of the bought product (Sino Biological 90251-C08H)

[2] = biological target: T2, Europium-conjugated human PD-L1 (human, UniProt Q9NZQ7 19-238, limits assumed, Europium conjugate (site not stated)); assay: HTRF competition assay: Europium-human PD-L1 with Alexa-647-conjugated Mab 3-16 as competitor, unlabelled antibody titrated
T2 construct: also called Europium-human PD-L1; PD-L1 (HTRF donor protein)

[3] = biological target: T3, human PD-L1 (Sino biological, 10084-H08H) (human, UniProt Q9NZQ7 19-238); assay: BLI (Octet Red), antibody captured on anti-human Fc sensors, human PD-L1 as analyte
T3 construct: Bought recombinant protein used as analyte in BLI

[4] = biological target: T2, Europium-conjugated human PD-L1; assay: HTRF blocking assay: Europium-human PD-L1 with Alexa-647 human PD-1 as the blocked ligand, antibody titrated
[5] = biological target: T3, human PD-L1 (Sino biological, …); assay: BLI (Octet Red), antibody captured on anti-human Fc sensors, human PD-L1 as analyte; remark: listed apart in the source
[6] = biological target: T2, Europium-conjugated human PD-L1; assay: HTRF blocking assay: Europium-human PD-L1 with Alexa-647 human PD-1 as the blocked ligand, antibody titrated; remark: listed apart in the source
[7] = biological target: human PD-L1 on cells (Raji cell line expressing human PD-L1; human PBMCs) (human, UniProt Q9NZQ7 19-290); assay: cell-based or functional assay
[8] = biological target: T3, human PD-L1 (Sino biological, …); assay: BLI (Octet Red), antibody captured on anti-human Fc sensors, human PD-L1 as analyte; Table 8 run, alongside humanized Hum-5/6/7
[9] = biological target: T2, Europium-conjugated human PD-L1; assay: HTRF competition assay: Europium-human PD-L1 with Alexa-647-conjugated Mab 3-16 as competitor, unlabelled Mab 3-16 titrated
[10] = biological target: T2, Europium-conjugated human PD-L1; assay: as above; remark: listed apart in the source

T1 sequence (G7PSE7 entry or part of it C08H C08H limits assumed): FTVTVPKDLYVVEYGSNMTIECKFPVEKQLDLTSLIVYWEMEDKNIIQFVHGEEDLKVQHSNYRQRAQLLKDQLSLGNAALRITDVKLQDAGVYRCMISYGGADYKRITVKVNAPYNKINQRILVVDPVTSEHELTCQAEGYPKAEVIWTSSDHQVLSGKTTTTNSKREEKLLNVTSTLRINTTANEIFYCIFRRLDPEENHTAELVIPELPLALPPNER
T3 sequence (Q9NZQ7 19-238 limits assumed): as the sequence (G7PSE7 entry or part of it C08H C08H limits assumed) above, with T33A, S34A, N62S, Q68R, R82Q, L173F, A185T, I192T, L215H counted along it
T2 sequence (Q9NZQ7 19-238 limits assumed): as the sequence (G7PSE7 entry or part of it C08H C08H limits assumed) above, with T33A, S34A, N62S, Q68R, R82Q, L173F, A185T, I192T, L215H counted along it
Sequence of human PD-L1 on cells (Raji cell line expressing human PD-L1; human PBMCs) (Q9NZQ7 19-290): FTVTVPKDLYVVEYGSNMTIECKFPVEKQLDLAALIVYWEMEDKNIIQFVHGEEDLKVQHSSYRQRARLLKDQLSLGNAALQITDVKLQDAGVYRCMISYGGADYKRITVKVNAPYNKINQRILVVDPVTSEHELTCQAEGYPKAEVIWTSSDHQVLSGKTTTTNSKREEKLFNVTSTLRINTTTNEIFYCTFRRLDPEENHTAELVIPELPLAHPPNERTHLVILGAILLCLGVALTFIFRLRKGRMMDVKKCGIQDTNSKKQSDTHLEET

Binder	Kd [1]	koff [1]	kon [1]	IC50 (read off the curve) [2]	Kd [3]	koff [3]	kon [3]	IC50 (read off the curve) [4]	Kd [5]	koff [5]	kon [5]	further results
humanized anti-human PD-L1 antibody Hum-5 (antibody, human IgG1, kappa, V domains shown) VH: EVQLVESGGGLVQPGGSLRLSCAASGFTFGGFGMHWVRQAPGKGLEWVSYITGDSSTIYYADRVRGRFTISRDNAKNSLYLQMNSLRAEDTAVYYCVRGPPGTWAYWGQGTLVTVSS VL: EIVLTQSPATLSLSPGERATLSCRASESVEFYGTTLVQWYQQKPGQAPRLLIYGASNVESGIPARFSGSGSGTDFTLTISSLEPEDFAVYYCQQIRKVPWTFGQGTKVEIKR	0.915 nM	8.65e-05 s⁻¹	94500 M⁻¹ s⁻¹	~0.1 µg/mL	0.126 nM	3.92e-05 s⁻¹	310000 M⁻¹ s⁻¹	–	–	–	–	–
humanized anti-human PD-L1 antibody Hum-7 (antibody, human IgG1, kappa, V domains shown) VH: EVQLVESGGGLVQPGGSLRLSCAASGFTFGGFGMHWVRQAPGKGLEWVSYITGDSSTIYYADRVRGRFTISRDNAKNSLYLQMNSLRAEDTAVYYCVRGPPGTWAYWGQGTLVTVSS VL: EIVLTQSPATLSLSPGERATLSCRASESVEFYGTTLVQWYQQKPGQAPRLLIYGASNVESGIPARFSGSGSGTDFTLTISSLEPEDFAVYFCQQIRKVPWTFGQGTKVEIKR	≤ 0.0011 nM	< 1e-07 s⁻¹	73100 M⁻¹ s⁻¹	~0.1 µg/mL	< 0.001 nM	1.28e-07 s⁻¹	302000 M⁻¹ s⁻¹	–	–	–	–	–
humanized anti-human PD-L1 antibody Hum-6 (antibody, human IgG1, kappa, V domains shown) VH: EVQLVESGGGLVQPGGSLRLSCAASGFTFGGFGMHWVRQAPGKGLEWVSYITGDSSTIYYADRVRGRFTISRDNAKNSLYLQMNSLRAEDTAVYYCVRGPPGTWAYWGQGTLVTVSS VL: EIVLTQSPATLSLSPGERATLSCRASESVEFYGTTLVQWYQQKPGQPPRLLIYGASNVESGIPARFSGSGSGTDFTLTISSLEPEDFAVYYCQQIRKVPWTFGQGTKVEIKR	0.00208 nM	1.33e-07 s⁻¹	63900 M⁻¹ s⁻¹	~0.1 µg/mL	< 0.001 nM	< 1e-07 s⁻¹	292000 M⁻¹ s⁻¹	–	–	–	–	–
chimeric anti-human PD-L1 antibody Mab 3-18 (antibody, human IgG1, kappa, V domains shown, Mouse variable domains on human IgG1 / kappa constant regions) VH: EVHLQESGPSLVKPSQTLSLTCSVTGDSITSGYWNWIRQFPGNKLEYMGYVSYSGSTYYNPSLKSRISITRDTSKNQYYLQLSSVTTEDTATYYCANYYGDNWPFPLDYWGQGTSVIVSS VL: DIVMTQAAPSVPVTPGESVSISCRSNKSLLHSNGNTYLYWFLQRPGQSPQLLIYRMSNLASGVPDRFSGSGSGTAFTLTISRVEAEDVGVYYCMQHLEYPFTFGGGTKLEIER	–	–	–	–	–	–	–	~0.2 µg/mL	1.16 nM	0.000408 s⁻¹	351000 M⁻¹ s⁻¹	–
chimeric anti-human PD-L1 antibody Mab 3-17 (antibody, human IgG1, kappa, V domains shown, Mouse variable domains on human IgG1 / kappa constant regions) VH: EVHLQESGPSLVKPSQTLSLTCSVTGDSITSGYWNWIRQFPGNKLEYMGYVSYSGSTYYNPSLKSRISITRDTSKNQYYLQLSSVTTEDTATYYCANYYGDNWPFPLDYWGQGTSVIVSS VL: DIVMTQSPATLSVTPGDRVSLSCRASQSINGNLHWFQQKSHESPRLLIKYASQSISGIPSRFSGSGSGSDFTLRINSVEPEDVGVYYCQNGHGFPYTFGGGTKLEIKR	–	–	–	–	–	–	–	~0.2 µg/mL	1.5 nM	0.000626 s⁻¹	417000 M⁻¹ s⁻¹	–
chimeric anti-human PD-L1 antibody Mab 1-01 (antibody, human IgG1, kappa, V domains shown, Mouse variable domains on human IgG1 / kappa constant regions) VH: EVQLQQSGPELVKPGASVKMSCKASGYSFSGYFLNWVKQSHGKSLEWIGRINPSNDDTVYSQKFKDRATLSLDRSSGTVHMELRSLTSEDSAVYYCARFGHASWYFDVWGAGTTVTVSS VL: QIVLTQSPAIMSASPGEKVTMTCSARSSVIYMSWYQQKPGSSPRLLIYDTSHLASGVPVRFSGSGSGTFYSLIISRVEAEDAATYYCQQWSTYPLTFGAGTRLELNR	–	–	–	–	–	–	–	–	13 nM	–	–	–
chimeric anti-human PD-L1 antibody Mab 1-02 (antibody, human IgG1, kappa, V domains shown, Mouse variable domains on human IgG1 / kappa constant regions) VH: EVQLQQSGPELVKPGASVKMSCKASGYSFSGYFLNWVKQSHGKSLEWIGRINPSNDDTVYSQKFKDRATLSLDRSSGTVHMELRSLTSEDSAVYYCARFGHASWYLDVWGAGTTVTVSS VL: QIVLTQSPAIMSASPGEKVTMTCSARSSIIYMSWYQQKTGSSPRLLIYDTSHLASGVPVRFSGSGSGTFFSLIISRMEAEDAATYYCQQWSTYPLTFGAGTRLELKR	–	–	–	–	–	–	–	–	16 nM	–	–	–
chimeric anti-human PD-L1 antibody Mab 2-04 (antibody, human IgG1, kappa, V domains shown, Mouse variable domains on human IgG1 / kappa constant regions) VH: QVQLQQSGAELARPGASVKMSCKASGYTFTDYAMHWIKQRPGQGLEWIGFIIPSGDHTDYNQNFKDRATLTADKSSNTAYMQLTSLTPDDSAVYFCARGHGFHLYVMDYWGQGTSVTVSS VL: DIVMTQSPATLSVTPGDGVSLSCRASQSIADYLHWYQQKSHESPRLLIKYASQSISGIPSRFSGSGSGSDFTLSISSVEPEDVGVYFCQNGHSFPPTFGTGTKLELKR	–	–	–	–	–	–	–	–	0.279 nM	0.000241 s⁻¹	864000 M⁻¹ s⁻¹	IC50 (read off the curve) [6]: ~0.3 µg/mL
chimeric anti-human PD-L1 antibody Mab 3-14 (antibody, human IgG1, kappa, V domains shown, Mouse variable domains on human IgG1 / kappa constant regions) VH: QVQLQQSGAELVKPGTSVKLSCKASGYTFSMYYMFWVKQRPGQGLEWIGQINPSNGRTNFNEKFKSKATLTVDKSSTTAYMQLSSLTSEDSAVYYCTREISYDEFAYWGQGTLVTVSA VL: DVVMTQTPLSLPVSLGDQASISCRSSQSLVHSNGNTYLHWYLQKPGQSPKLLIYRVSNRFSGVPDRFSGSGSGTDFTLKISRVEAEDLGIYFCSQSAHLPYTFGGGTKLEIKR	–	–	–	–	–	–	–	~0.2 µg/mL	0.124 nM	4.05e-05 s⁻¹	327000 M⁻¹ s⁻¹	–
chimeric anti-human PD-L1 antibody Mab 3-16 (antibody, human IgG1, kappa, V domains shown, Mouse variable domains on human IgG1 / kappa constant regions; also called parent antibody Mab 3-16) VH: DVQLVESGGGLVQPGGSRKLSCAASGFTFGGFGMHWVRQAPEKGLEWVAYITGDSSTIYYADRVRGRFTISRDNPRNILFLQMTSLGSEDTAMYYCVRGPPGTWAYWGQGTLVTVSA VL: DIVLTQSPASLAVSLGQRATFSCRASESVEFYGTTLVQWYQQRPGQPPKLLIYGASNVESGVPARFTGSGSGTDFSLNIHPVEEDDIAMYFCQQIRKVPWTFGGGTKLEIRR	0.863 nM	8.34e-05 s⁻¹	96700 M⁻¹ s⁻¹	–	–	1.19e-07 s⁻¹	286000 M⁻¹ s⁻¹	~0.2 µg/mL	0.146 nM	6.17e-05 s⁻¹	423000 M⁻¹ s⁻¹	EC50(nM), IL-2 production by SEB stimulated human PBMCs [7]: 5.41 nM; Kd [8]: < 0.001 nM; IC50 (read off the curve) [9]: ~0.2 µg/mL; IC50 (read off the curve) [10]: ~0.2 µg/mL
